Experimental findings from article PMC4613515 are described below.

The target of this test is His6–WT cyclin Y (Sf21) (human) (UniProt Q8ND76). In words: co-purification on Ni-NTA–agarose, immunoblot; His6–cyclin Y (WT or S326A) expressed in Sf21 cells and affinity-purified; defined amounts immunoblotted for 14-3-3.
Sequence of UniProt Q8ND76 (Q8ND76 whole entry): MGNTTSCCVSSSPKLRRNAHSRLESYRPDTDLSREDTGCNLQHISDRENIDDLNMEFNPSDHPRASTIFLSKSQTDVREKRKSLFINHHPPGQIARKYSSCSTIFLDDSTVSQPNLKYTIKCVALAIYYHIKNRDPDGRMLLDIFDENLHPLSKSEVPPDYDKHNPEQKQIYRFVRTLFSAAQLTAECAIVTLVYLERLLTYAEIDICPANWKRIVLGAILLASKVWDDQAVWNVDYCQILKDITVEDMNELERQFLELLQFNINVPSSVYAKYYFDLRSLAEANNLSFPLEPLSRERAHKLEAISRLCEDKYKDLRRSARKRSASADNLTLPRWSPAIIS

The substance “14-3-3 proteins (endogenous in Sf21 cells) (natural protein)” gave an amount of co-purified 14-3-3 against that with COS-1-derived WT cyclin Y of 100 fold less.
